We go through two substances from publication doi:10.1101/2021.05.10.443506.

Experiment [1] concerns the target mCherry-Nup153-IDR-NLS-LacI. Nature of the experiment: LacO array recruitment.
In experiment [2] the target is mCherry-Med1-IDR-NLS-LacI. Nature of the experiment: LacO array recruitment.
Sequence of mCherry-Med1-IDR-NLS-LacI (Q15648 whole entry): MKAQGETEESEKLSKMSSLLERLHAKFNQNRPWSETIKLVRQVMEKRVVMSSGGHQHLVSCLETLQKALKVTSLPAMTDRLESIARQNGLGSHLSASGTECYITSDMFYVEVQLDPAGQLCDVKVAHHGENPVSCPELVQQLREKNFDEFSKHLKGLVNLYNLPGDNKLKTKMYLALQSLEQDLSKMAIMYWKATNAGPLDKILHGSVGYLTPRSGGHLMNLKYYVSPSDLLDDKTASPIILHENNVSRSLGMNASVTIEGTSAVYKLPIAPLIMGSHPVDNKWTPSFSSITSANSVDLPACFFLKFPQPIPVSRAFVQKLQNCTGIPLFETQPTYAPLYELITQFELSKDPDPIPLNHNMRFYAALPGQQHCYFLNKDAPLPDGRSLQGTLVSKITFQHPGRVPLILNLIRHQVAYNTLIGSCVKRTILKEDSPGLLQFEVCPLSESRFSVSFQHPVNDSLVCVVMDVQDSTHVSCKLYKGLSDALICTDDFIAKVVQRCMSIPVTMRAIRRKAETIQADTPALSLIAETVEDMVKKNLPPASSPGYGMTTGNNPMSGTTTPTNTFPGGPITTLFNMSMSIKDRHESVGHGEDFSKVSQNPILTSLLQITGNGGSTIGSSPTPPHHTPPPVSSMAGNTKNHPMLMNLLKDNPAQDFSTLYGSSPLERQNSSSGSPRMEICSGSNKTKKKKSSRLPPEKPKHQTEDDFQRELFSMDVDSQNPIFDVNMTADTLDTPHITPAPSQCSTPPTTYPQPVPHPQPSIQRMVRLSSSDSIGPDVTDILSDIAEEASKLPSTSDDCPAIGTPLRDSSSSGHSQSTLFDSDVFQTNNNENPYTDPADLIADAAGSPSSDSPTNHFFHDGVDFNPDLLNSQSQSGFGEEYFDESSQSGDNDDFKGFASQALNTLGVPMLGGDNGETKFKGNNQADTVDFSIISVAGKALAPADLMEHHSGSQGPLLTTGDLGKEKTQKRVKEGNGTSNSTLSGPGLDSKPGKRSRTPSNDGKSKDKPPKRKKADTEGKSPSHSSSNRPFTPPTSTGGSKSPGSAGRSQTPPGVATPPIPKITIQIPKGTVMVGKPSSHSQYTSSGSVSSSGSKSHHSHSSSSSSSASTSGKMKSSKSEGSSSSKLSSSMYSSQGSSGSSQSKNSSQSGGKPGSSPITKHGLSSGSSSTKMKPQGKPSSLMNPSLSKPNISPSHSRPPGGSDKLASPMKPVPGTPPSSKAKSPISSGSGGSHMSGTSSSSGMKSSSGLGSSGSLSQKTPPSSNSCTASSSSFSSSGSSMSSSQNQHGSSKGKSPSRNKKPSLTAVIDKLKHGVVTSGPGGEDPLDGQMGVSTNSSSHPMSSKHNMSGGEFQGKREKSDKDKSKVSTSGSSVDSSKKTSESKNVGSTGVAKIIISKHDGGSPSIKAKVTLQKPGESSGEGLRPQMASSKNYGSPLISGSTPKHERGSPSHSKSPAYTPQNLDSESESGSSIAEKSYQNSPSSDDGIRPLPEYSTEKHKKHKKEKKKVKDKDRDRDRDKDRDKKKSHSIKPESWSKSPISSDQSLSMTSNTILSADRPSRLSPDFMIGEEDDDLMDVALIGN

Sequence of mCherry-Nup153-IDR-NLS-LacI (P49790 2-1475): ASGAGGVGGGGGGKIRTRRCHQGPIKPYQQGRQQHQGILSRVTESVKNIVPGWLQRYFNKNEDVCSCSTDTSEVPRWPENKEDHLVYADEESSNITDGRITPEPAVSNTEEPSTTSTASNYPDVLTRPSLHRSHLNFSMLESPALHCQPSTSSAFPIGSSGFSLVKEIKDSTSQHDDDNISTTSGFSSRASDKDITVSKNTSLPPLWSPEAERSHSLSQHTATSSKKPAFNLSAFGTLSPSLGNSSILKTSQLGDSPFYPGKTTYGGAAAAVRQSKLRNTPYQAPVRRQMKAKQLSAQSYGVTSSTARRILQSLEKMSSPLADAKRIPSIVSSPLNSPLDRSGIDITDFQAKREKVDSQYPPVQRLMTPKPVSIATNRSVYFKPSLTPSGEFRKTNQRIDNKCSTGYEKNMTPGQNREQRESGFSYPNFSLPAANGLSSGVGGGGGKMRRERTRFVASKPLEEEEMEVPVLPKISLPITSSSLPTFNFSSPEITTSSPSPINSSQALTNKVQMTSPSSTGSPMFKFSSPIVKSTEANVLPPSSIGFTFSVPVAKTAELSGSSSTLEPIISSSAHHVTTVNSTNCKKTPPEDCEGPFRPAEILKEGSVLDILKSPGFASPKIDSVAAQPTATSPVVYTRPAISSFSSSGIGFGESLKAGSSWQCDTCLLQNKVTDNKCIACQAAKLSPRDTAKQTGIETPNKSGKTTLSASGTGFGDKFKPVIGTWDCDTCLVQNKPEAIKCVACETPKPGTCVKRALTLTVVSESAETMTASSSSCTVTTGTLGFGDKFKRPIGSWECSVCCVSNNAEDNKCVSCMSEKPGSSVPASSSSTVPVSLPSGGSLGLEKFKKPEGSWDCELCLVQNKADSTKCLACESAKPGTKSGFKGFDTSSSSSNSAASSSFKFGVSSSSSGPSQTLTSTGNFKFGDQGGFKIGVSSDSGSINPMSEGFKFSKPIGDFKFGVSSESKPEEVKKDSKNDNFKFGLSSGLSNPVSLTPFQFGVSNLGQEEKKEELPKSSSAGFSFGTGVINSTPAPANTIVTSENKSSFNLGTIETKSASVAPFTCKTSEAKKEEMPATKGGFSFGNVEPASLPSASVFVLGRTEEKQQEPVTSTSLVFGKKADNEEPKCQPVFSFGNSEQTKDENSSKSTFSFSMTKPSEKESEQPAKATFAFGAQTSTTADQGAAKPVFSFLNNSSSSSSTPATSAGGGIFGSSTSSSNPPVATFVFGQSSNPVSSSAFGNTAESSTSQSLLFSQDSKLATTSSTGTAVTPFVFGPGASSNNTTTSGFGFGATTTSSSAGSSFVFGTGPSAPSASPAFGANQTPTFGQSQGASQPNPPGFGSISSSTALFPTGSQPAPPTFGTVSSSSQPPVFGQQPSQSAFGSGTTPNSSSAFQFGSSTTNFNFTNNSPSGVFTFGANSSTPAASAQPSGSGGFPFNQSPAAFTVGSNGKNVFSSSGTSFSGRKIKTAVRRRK
Sequence of EGFP-Med1-NLS (Med1 IDR fused to GFP) (domain or fragment) (Q15648 whole entry, the tested form may be a part): as the sequence (Q15648 whole entry) above

With “EGFP-Med1-NLS (Med1 IDR fused to GFP) (domain or fragment)”, the percent of cells with colocalized GFP and mCherry signal in experiment [1] was 13 % of cells. As to “EGFP-PolII CTD52-NLS (domain or fragment)”, the percent of cells with colocalized GFP and mCherry signal was 53 % of cells in experiment [2] and 67 % of cells in experiment [1].
